# From the nanobody polyreactivity screen of Harvey et al. (2022)
# Assay: yeast display, Sf9 membrane polyspecificity reagent, FACS + sequencing; frameworks hold sequencing errors
# Procedure, shortened: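 Nanobodies came from a synthetic yeast display library in Saccharomyces cerevisiae BJ5465, induced with galactose for 36–48 hours and stained for 1 hour at 4 °C with 10% biotinylated, detergent-solubilized Sf9 membrane reagent. Cells were enriched on streptavidin microbeads and then FACS-sorted, with low and high (top ~1%) gates set on anti-HA fluorescence for expression and streptavidin fluorescence for reagent binding. Each polyreactivity label reflects the gate a clone came from. Genes were amplified by colony PCR, sequenced by MiSeq 2 × 250 and filtered by CDR length.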
row,Sequence,polyreactivity (PSR sort gate)
1,QVQLVESGGGLVQAGGSLRLSCAASGRTFPAYAMGWYRQAPGKERELVAAISYSGGRTRYADSVKGRFTISRDNAKNTVYLQMNSLKPEDTAVYDCNRVIPTQSLRDYYWGQGTQVTVSS,high polyreactivity
2,QVQLVESGGGLVQAGGSLRLSSAASGSIFVHYAMGWYRQAPGKEREFVAAISRGGGTTYYADSVKGRFTISRDNAKNTVYLQLNCLKPEDNAVYYCNAVRFFEHDYWGQGTQVTVSS,high polyreactivity
3,QVQLEESGGGLVQAGGSLRLSCAASGLTFTPNAMGWYRPAPGKEWELVAAITNGGSTNYADSVKGCFTISRDNAKNTVYLQMNSLKPEDTAVYYCAAECSYWFRRYGYWGQGTQVTVSS,high polyreactivity
4,QVQLVESGGGLVQAGGSLRLSCAASGNIFDTYVMGWYRQAPGKERELVAAITSDGGTYYADSVKGRFTISRDNAKNTVYLQMNSLKPEDTAVYYCAADTYYYPIHDYWGQGTQVTVSS,low polyreactivity
5,QVQLVESGGVLVQAGCSLRLSCAASGRTIPWYTMGWYRQAPRKERELVAAISNGGSTYYADSVKGRFTISRDNAKNTVYLQMNSLIPEDTAVYYCNSLVYKYIYNYDYWGQGTQVTVSS,high polyreactivity
6,QVQLEESGGGLDQAGGSLRLSCAASGSIFYYYAMGWYRQAPGKERELVAVIDFSGASTSYAVSVKGRFTISRDNAKITVYLQMNSLKPEDTAVYYCAADRRSKYDYWGQGTQVTVSS,low polyreactivity
7,QVQLVESGGGLVQAGGSLRLSCAASGSIFPRYAMGWYRQAPGKERELVAAITGSGSSTYYADSVKGRFTISRDNAKNTVYLQMNSLKPEDTAVYYCAGVYTYPLGYYHYTYDYWGQGTQVTVSS,low polyreactivity
8,QVQLVESGGGLVQAGGSLRLSCAASGLTFYPYTMGWYRQAPGKERELVAAISSGGSTYYADSVKGRFTISRDNAKNTVYLQMNSLKPEDTAVYYCAARYPYFSYGYWGQGTQVTVSS,high polyreactivity
9,QVQLVESGGGLVQAGGSLRLSCAASGIIIRYYAMGWYRQAPGKERELVADITTGGTTYYADSVKGRFTISRDNAKNTVYLQMNSLKPEDTAVYYCAAYYFPTYSKTYIYPFDYWGQGTQVTVSS,low polyreactivity
10,QVQLVESGGGLVKAGGILRLSCAASGSIFGRYVMGWYRPAPGKEREVVAAINRSGGRTYYADSVKGRFSISRDNAKYTVYLQMNSLKPEDTAVYYCATYTGSSASKEVPYDYWGQGTQVTVSS,high polyreactivity
11,QVQLVESGGGLVQAGGRLRLSCAASGRTIANYAMGWYRQAPGKERELVAAISFSTVSTYYADSVKGRFTISRDNAKNTVYLQMNSLKPEDTAVYYCAARRLGYYRKVKELDYWGQGTQVTVSS,high polyreactivity
12,QVQLVESGGGLVQAGGSLRLSCAASGLTFSWYAMGWYRQAPGKEREFVATISASGGSTYYADSVKGRFTISRDNAKNTVYLQMNSLKPEDTAVYYCNAIYFRYRNGGYDYWGQGTQVTVSS,high polyreactivity
13,QVQLVESGGGLVQAGGSLRLSCAASGLILHKYAMGWYRQAPGKERELVASINSGANTNYADSVKGRFTISRDNAKNTVYLQMNSLKPEDTAVYYCNADPGFRDYYWGQGTQVNVSS,low polyreactivity
14,QVQLVESGGGLVQAGGSLRLSCAASGFTFIRYAMGWYSQAAGKDRELVARITSSGSSTYADSVKGRFTISRDKAKNTVYLQMNSLKPEDTAVYYCAAKVHTRRRFDYWGQGTQVTVSS,high polyreactivity
15,QVQLVESGGGFVQAGGSLRLSCAASGFTFTSYAMGWYRQAPGKEREFVAAIRRSGSGTNYADSVKGRFTISRDNAKNTVYLQLNSLKPEDTAVYYCAAEQWGWYWYDYWGQGTQVTVSS,high polyreactivity
16,QVQLVESGGGLVQAGGSLRLSCAASGLIFDPNTMGWYRQAPGKERELVAAISSGGDTNYADSVKGRFTISRDNAKNTVYLQMNSLKPEDTAVYYCAAERYYFPRSYRYGYWGQGTQVTVSS,low polyreactivity
